This passage reports Kd results from doi:10.1101/2025.03.19.644124.

Holding throughout (assay): BLI
In general terms: In BLI a coated tip is dipped into the sample, and binding shifts an interference pattern.

Experiment [1] has as its target biotinylated PpBRCA2-BRC2 peptide (Physcomitrium patens).
Experiment [2] addresses biotinylated PpBRCA2-BRC1 peptide (Physcomitrium patens).
The target of experiment [3] is biotinylated PpBRCA2-BRC4 peptide (Physcomitrium patens).
For experiment [4], the target named is 6His-PpBRCA2-Cter (amino acids 251 to 391) (Physcomitrium patens).

One may read the Kd as the equilibrium constant for the complex coming apart. Low values mean tighter binding, high ones weaker binding.

For “recombinant PpRAD51-2, tag-free (natural protein)”, the Kd in experiment [1] was 0.8 µM; in experiment [2] it was 0.4 µM; in experiment [3], 0.4 µM; in experiment [4], 0.0043 µM.
